Test results: patent US12006344 (Novo Nordisk, dated 2024)

T1: human MIC-1 receptor (hGFRAL, GDNF family receptor alpha like) (human, UniProt Q6UXV0 19-394)
T1 sequence (looked up): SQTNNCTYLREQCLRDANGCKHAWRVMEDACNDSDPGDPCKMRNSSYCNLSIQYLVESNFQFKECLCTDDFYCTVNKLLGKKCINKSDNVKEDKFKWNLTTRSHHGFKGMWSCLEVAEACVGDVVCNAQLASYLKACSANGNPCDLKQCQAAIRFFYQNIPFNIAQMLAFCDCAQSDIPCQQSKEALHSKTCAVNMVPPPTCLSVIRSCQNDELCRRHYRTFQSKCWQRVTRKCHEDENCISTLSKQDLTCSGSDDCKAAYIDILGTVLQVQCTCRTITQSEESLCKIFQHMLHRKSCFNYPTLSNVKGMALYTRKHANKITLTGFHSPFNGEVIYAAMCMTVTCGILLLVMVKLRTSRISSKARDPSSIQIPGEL


Target: T1, human MIC-1 receptor (hGFRAL, GDNF …)
Assay: cell-based or functional assay

pERK EC50 (nM)	pERK Emax (%)	Binder
0.7 nM	100%	MIC-1(R2A, N3E, L105E) (ligand) AAEGDHCPLGPGRCCRLHTVRASLEDLGWADWVLSPREVQVTMCIGACPSQFRAANMHAQIKTSLHRLKPDTVPAPCCVPASYNPMVLIQKTDTGVSLQTYDDLEAKDCHCI
0.6 nM	100%	MIC-1(R2A, N3E, P85E) (ligand) AAEGDHCPLGPGRCCRLHTVRASLEDLGWADWVLSPREVQVTMCIGACPSQFRAANMHAQIKTSLHRLKPDTVPAPCCVPASYNEMVLIQKTDTGVSLQTYDDLLAKDCHCI
0.6 nM	100%	MIC-1(R2A, N3E, R21E) (ligand) AAEGDHCPLGPGRCCRLHTVEASLEDLGWADWVLSPREVQVTMCIGACPSQFRAANMHAQIKTSLHRLKPDTVPAPCCVPASYNPMVLIQKTDTGVSLQTYDDLLAKDCHCI
0.4 nM	100%	MIC-1(R2A, N3E, P11E) (ligand) AAEGDHCPLGEGRCCRLHTVRASLEDLGWADWVLSPREVQVTMCIGACPSQFRAANMHAQIKTSLHRLKPDTVPAPCCVPASYNPMVLIQKTDTGVSLQTYDDLLAKDCHCI
0.4 nM	100%	MIC-1(R2A, N3E, R53E) (ligand) AAEGDHCPLGPGRCCRLHTVRASLEDLGWADWVLSPREVQVTMCIGACPSQFEAANMHAQIKTSLHRLKPDTVPAPCCVPASYNPMVLIQKTDTGVSLQTYDDLLAKDCHCI
0.3 nM	70%	MIC-1(R2A, N3E, M57E) (ligand) AAEGDHCPLGPGRCCRLHTVRASLEDLGWADWVLSPREVQVTMCIGACPSQFRAANEHAQIKTSLHRLKPDTVPAPCCVPASYNPMVLIQKTDTGVSLQTYDDLLAKDCHCI
0.5 nM	100%	MIC-1(R2A, N3E, R67E) (ligand) AAEGDHCPLGPGRCCRLHTVRASLEDLGWADWVLSPREVQVTMCIGACPSQFRAANMHAQIKTSLHELKPDTVPAPCCVPASYNPMVLIQKTDTGVSLQTYDDLLAKDCHCI
0.4 nM	100%	SPAGSPTSTEEGTSESATPESGPG-MIC-1 (SEQ ID NO: 1) (ligand) SPAGSPTSTEEGTSESATPESGPGARNGDHCPLGPGRCCRLHTVRASLEDLGWADWVLSPREVQVTMCIGACPSQFRAANMHAQIKTSLHRLKPDTVPAPCCVPASYNPMVLIQKTDTGVSLQTYDDLLAKDCHCI

The next lines start with the binder.

Binder	pERK EC50 (nM)	pERK Emax (%)
(AEE)3AES-MIC-1-Δ1-3 (ligand) AEEAEEAEEAESGDHCPLGPGRCCRLHTVRASLEDLGWADWVLSPREVQVTMCIGACPSQFRAANMHAQIKTSLHRLKPDTVPAPCCVPASYNPMVLIQKTDTGVSLQTYDDLLAKDCHCI	0.5 nM	100%
(GEPS)5-MIC-1 (SEQ ID NO: 1) (ligand) GEPSGEPSGEPSGEPSGEPSARNGDHCPLGPGRCCRLHTVRASLEDLGWADWVLSPREVQVTMCIGACPSQFRAANMHAQIKTSLHRLKPDTVPAPCCVPASYNPMVLIQKTDTGVSLQTYDDLLAKDCHCI	0.5 nM	100%
(AEE)6AES-MIC-1(SEQ ID NO: 1) (ligand) AEEAEEAEEAEEAEEAEEAESGDHCPLGPGRCCRLHTVRASLEDLGWADWVLSPREVQVTMCIGACPSQFRAANMHAQIKTSLHRLKPDTVPAPCCVPASYNPMVLIQKTDTGVSLQTYDDLLAKDCHCI	0.8 nM	100%
(AEE)5AES-MIC-1-Δ1-3 (ligand) AEEAEEAEEAEEAEEAESGDHCPLGPGRCCRLHTVRASLEDLGWADWVLSPREVQVTMCIGACPSQFRAANMHAQIKTSLHRLKPDTVPAPCCVPASYNPMVLIQKTDTGVSLQTYDDLLAKDCHCI	0.5 nM	100%
AEEAES-MIC-1-Δ1-3 (ligand) AEEAESGDHCPLGPGRCCRLHTVRASLEDLGWADWVLSPREVQVTMCIGACPSQFRAANMHAQIKTSLHRLKPDTVPAPCCVPASYNPMVLIQKTDTGVSLQTYDDLLAKDCHCI	0.3 nM	100%
MIC-1 (SEQ ID NO: 1) (ligand) ARNGDHCPLGPGRCCRLHTVRASLEDLGWADWVLSPREVQVTMCIGACPSQFRAANMHAQIKTSLHRLKPDTVPAPCCVPASYNPMVLIQKTDTGVSLQTYDDLLAKDCHCI	0.3 nM	100%
AES-MIC-1-Δ1-3 (ligand) AESGDHCPLGPGRCCRLHTVRASLEDLGWADWVLSPREVQVTMCIGACPSQFRAANMHAQIKTSLHRLKPDTVPAPCCVPASYNPMVLIQKTDTGVSLQTYDDLLAKDCHCI	0.3 nM	100%
MIC-1(R2A, N3E, L68E) (ligand) AAEGDHCPLGPGRCCRLHTVRASLEDLGWADWVLSPREVQVTMCIGACPSQFRAANMHAQIKTSLHREKPDTVPAPCCVPASYNPMVLIQKTDTGVSLQTYDDLLAKDCHCI	0.8 nM	100%
MIC-1(R2A, N3E, K69E) (ligand) AAEGDHCPLGPGRCCRLHTVRASLEDLGWADWVLSPREVQVTMCIGACPSQFRAANMHAQIKTSLHRLEPDTVPAPCCVPASYNPMVLIQKTDTGVSLQTYDDLLAKDCHCI	0.5 nM	100%
MIC-1(R2A, N3E, A30E) (ligand) AAEGDHCPLGPGRCCRLHTVRASLEDLGWEDWVLSPREVQVTMCIGACPSQFRAANMHAQIKTSLHRLKPDTVPAPCCVPASYNPMVLIQKTDTGVSLQTYDDLLAKDCHCI	0.7 nM	100%
MIC-1(R2A, N3E, K107E) (ligand) AAEGDHCPLGPGRCCRLHTVRASLEDLGWADWVLSPREVQVTMCIGACPSQFRAANMHAQIKTSLHRLKPDTVPAPCCVPASYNPMVLIQKTDTGVSLQTYDDLLAEDCHCI	0.3 nM	100%
MIC-1(R2A, N3E, A47E) (ligand) AAEGDHCPLGPGRCCRLHTVRASLEDLGWADWVLSPREVQVTMCIGECPSQFRAANMHAQIKTSLHRLKPDTVPAPCCVPASYNPMVLIQKTDTGVSLQTYDDLLAKDCHCI	0.4 nM	100%
MIC-1(R2A, N3E, H18E) (ligand) AAEGDHCPLGPGRCCRLETVRASLEDLGWADWVLSPREVQVTMCIGACPSQFRAANMHAQIKTSLHRLKPDTVPAPCCVPASYNPMVLIQKTDTGVSLQTYDDLLAKDCHCI	0.5 nM	100%
MIC-1(R2A, N3E) (ligand) AAEGDHCPLGPGRCCRLHTVRASLEDLGWADWVLSPREVQVTMCIGACPSQFRAANMHAQIKTSLHRLKPDTVPAPCCVPASYNPMVLIQKTDTGVSLQTYDDLLAKDCHCI	0.3 nM	100%
(AEE)2AES-MIC-1-Δ1-3 (ligand) AEEAEEAESGDHCPLGPGRCCRLHTVRASLEDLGWADWVLSPREVQVTMCIGACPSQFRAANMHAQIKTSLHRLKPDTVPAPCCVPASYNPMVLIQKTDTGVSLQTYDDLLAKDCHCI	0.4 nM	100%
